Where two headings read alike, the source gives them in different places.
Tests used:
[1] = system: mouse tail bleeding model; conditions: cited from earlier work
human plasmin = biological target: T1, human plasmin (Homo sapiens, UniProt P00747); assay: Protease inhibition assay, plasmin (S-2251 amidolytic activity); format: biochemical; conditions: 3 nM plasmin; 1 hour at room temperature; tight-binding equation
T1 construct: purchased Hematologic Technologies Inc (Essex Junction, VT)
Protocol: (§1) All reactions were carried out in TBS, pH 7.5 (50 mM Tris-HCL, pH 7.5, containing 100 mM NaCl), containing 0.1 mg bovine serum albumin/ml (TBS/BSA) and 2 mM Ca2+(TBS/BSA/Ca2+, pH 7.5). […] The inhibition constant, K* was determined using the nonlinear regression data analysis program Grafit.
(§2) Ki values were obtained by correcting for the effect of substrate according to Beith (38), using equation 2, where (S) is substrate concentration and KM is specific for each enzyme.
Reactions were carried out in TBS/BSA and 2 mM calcium. […] Synthetic substrate for plasmin was then added to a final concentration of 1 KM, and residual amidolytic activity was measured in a kinetic microplate reader (Molecular Devices).

FVIIa/sTF = biological target: T2, FVIIa/sTF (Homo sapiens, UniProt P08709); assay: Protease inhibition assay, FVIIa/soluble tissue factor; format: biochemical; conditions: 20 nM FVIIa/sTF; read-out: Ki for Factor VIIa/soluble tissue factor
T2 construct: human factor VIIa (FVIIa) was prepared as described previously (34)
Protocol: as §1, §2

FXa = biological target: T3, FXa (Homo sapiens, UniProt P00742); assay: Protease inhibition assay, factor Xa; format: biochemical; conditions: 1 nM FXa
T3 construct: FXa, factor Xa
Protocol: FIG. 2. Data from Equilibrium inhibition constants (Ki) of KD1Y11T/R15KL17R-KT with plasmin, FXIa, kallikrein (KLK), FVIIa/sTF and FXa. Percent activity of 3 nM human plasmin remaining in the presence of various concentrations (0.05 to 19.2 nM) of KD1Y11T/R15KL17R-KT (●) or BPTI (◯). And percent activity of 1 nM human FXIa (▴), 1 nM human kallikrein (●), 20 nM human FVIIa/sTF (Δ) and 1 nM FXa (♦) remaining in the presence of various concentrations (1 μM to 30 μM) of KD1Y11T/R15KL17R-KT.
Ki values for each inhibitor were calculated using the tight binding equations.

HUVEC [2] = format: cell-based, human
Protocol: (§3) Resazurin reduction assay (Fisher Scientific) was used to evaluate the potential cytotoxicity of antifibrinolytic agents toward primary human endothelial cells and skin fibroblasts. Phosphate buffer that was used to dissolve the samples was included as negative control. The assay is based on reduction of the non-fluorescent dye resazurin, to the highly fluorescent resorufin by viable cells. […] Briefly, cells in 96-well cell culture plates were treated with different concentrations of antifibrinolytic compounds (as described above). After 24 hours resazurin reagent was added to each well and the plates were incubated at 37° C. for 4 hours. Fluorescence was measured by the FLUOstar Omega Microplate Reader (BMG Labtech) using an excitation wavelength of 544 nm and an emission wavelength of 590 nm. Each assay was done in duplicate, with three replicates each. The viability was evaluated based on comparison with untreated cells.

[3] = system: primary human dermal skin fibroblasts; assay: Resazurin reduction (alamarBlue) viability assay, skin fibroblasts; format: cell-based
Protocol: as §3

HUVEC [4] = assay: Caspase 3/7 assay, HUVEC; format: cell-based, human; conditions: 24 hours; 30 μM KD1TM, 30 μM BPTI, 60 mM EACA, 30 mM TXA
Protocol: The influence of antifibrinolytic agents on apoptosis in cells was detected using the Caspase-Glo 3/7 Assay kit (Promega). Caspase 3 and 7 are activated in cells that undergo apoptosis. The assay provides a luminogenic substrate for caspase 3 and 7. Enzymatic activity leads to luminescence, which is proportional to the amount of caspase activity present. Cells were seeded in 96-well plates and treated with antifibrinolytic agents or phosphate buffer (solvent control). Taxol was included as positive control. After 24 hours of treatment, caspase reagent was added to each well, mixed and incubated for 1 hour at room temperature. Luminescence was measured using the FLUOstar Omega Microplate Reader (BMG Labtech).

HUVEC [5] = conditions: 24 hours; 30 μM KD1TM, 30 μM BPTI, 60 mM EACA, 30 mM TXA
Source text: (§4) Primary human pooled umbilical vein endothelial cells (HUVEC) were obtained from ATCC. The cells were maintained in Vascular Cell Basal Medium (ATCC), supplemented with the Endothelial Cell Growth Kit-BBE (ATCC) and Penicillin-Streptomycin-Amphotericin B (ATCC). Primary human dermal skin fibroblasts were obtained from LONZA and maintained in Fibroblast Basal Medium (FBMTM, LONZA), supplemented with a cocktail of growth factors, fetal bovine serum and antibiotics (FGMTM-2 SingleQuots™, LONZA). All cells were maintained in a humidified 5% C02 atmosphere at 37° C. and were passaged once they reached 80% confluence. All experiments were performed with cells in the logarithmic growth phase.
(§5) For toxicity studies, cells were seeded into 96-well or 24-well cell culture plates at 3,500 cells/cm2 and were used for experiments once they reached 80% confluence.
(§6) Cell toxicity and cell death was evaluated with the CellTox™ Green Cytotoxicity Assay (Promega). This assay measures changes in membrane integrity that occur as a result of cell death. The dye used in the system is excluded from viable cells but binds to DNA in compromised cells, which results in a fluorescent signal. We measured cell death in HUVEC and primary fibroblasts treated with antifibrinolytic agents at 4 concentrations (as indicated above) with triplicates per concentration in 24-well plates after 24 hours of exposure. Hoechst (Thermo Fisher Scientific) was used to stain all nuclei. Images of cells were captured using an inverted microscope (Nicon; Edipse T2000 TE). Green fluorescent cells (FITC filter) and Hoechst stained cells (DAPI filter) were counted using Image J software.

[6] = system: primary human dermal skin fibroblasts; conditions: 24 hours; 30 μM KD1TM, 30 μM BPTI, 60 mM EACA, 30 mM TXA
Source text: as §4, §5, §6

[7] = human, in vivo; cited from earlier work
[8] = in vivo; cited from earlier work

T2 sequence (P08709 213-466 limits assumed): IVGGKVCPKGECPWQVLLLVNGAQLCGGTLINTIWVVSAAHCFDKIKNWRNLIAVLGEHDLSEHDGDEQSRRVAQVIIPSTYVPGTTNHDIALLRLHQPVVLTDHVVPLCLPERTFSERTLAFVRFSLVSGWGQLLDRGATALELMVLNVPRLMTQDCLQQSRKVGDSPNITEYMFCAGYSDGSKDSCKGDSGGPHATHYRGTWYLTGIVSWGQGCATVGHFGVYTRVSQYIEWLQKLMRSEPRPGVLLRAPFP
T2 sequence (P08709 61-212 limits assumed): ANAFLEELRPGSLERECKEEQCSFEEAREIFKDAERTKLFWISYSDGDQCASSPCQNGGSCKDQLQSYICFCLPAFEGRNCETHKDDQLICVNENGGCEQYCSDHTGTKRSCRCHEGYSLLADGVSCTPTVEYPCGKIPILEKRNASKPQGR
T2 sequence (P13726 33-251 partner limits assumed): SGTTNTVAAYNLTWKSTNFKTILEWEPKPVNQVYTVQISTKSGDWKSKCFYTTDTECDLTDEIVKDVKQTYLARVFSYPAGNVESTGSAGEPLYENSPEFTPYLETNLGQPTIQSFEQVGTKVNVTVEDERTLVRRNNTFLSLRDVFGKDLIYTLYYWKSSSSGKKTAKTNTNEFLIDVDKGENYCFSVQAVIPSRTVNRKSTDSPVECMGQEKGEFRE
T3 sequence (P00742 235-488 limits assumed): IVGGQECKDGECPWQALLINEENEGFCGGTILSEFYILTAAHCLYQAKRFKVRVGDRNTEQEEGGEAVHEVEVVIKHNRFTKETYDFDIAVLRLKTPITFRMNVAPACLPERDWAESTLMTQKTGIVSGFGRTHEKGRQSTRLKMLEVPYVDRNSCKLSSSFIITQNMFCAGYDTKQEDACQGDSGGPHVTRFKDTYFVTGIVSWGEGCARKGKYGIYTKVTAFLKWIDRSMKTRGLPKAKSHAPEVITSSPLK
T3 sequence (P00742 41-179 limits assumed): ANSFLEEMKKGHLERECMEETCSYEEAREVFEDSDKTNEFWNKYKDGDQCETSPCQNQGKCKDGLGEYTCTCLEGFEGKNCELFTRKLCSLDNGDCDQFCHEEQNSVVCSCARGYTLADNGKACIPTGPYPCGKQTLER
T1 sequence (P00747 97-580 limits assumed): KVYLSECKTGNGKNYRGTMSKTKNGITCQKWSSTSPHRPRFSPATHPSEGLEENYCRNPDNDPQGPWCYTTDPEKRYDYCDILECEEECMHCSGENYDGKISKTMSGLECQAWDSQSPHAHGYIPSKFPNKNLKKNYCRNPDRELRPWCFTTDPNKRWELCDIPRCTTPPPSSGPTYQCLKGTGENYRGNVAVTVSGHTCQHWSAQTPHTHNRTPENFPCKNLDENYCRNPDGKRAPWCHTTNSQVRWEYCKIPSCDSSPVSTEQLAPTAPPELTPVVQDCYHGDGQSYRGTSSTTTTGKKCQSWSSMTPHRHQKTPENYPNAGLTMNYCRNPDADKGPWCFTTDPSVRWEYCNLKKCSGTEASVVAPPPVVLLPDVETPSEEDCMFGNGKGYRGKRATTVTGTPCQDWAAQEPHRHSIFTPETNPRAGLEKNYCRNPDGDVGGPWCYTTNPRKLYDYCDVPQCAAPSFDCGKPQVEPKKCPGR
T1 sequence (P00747 581-810 limits assumed): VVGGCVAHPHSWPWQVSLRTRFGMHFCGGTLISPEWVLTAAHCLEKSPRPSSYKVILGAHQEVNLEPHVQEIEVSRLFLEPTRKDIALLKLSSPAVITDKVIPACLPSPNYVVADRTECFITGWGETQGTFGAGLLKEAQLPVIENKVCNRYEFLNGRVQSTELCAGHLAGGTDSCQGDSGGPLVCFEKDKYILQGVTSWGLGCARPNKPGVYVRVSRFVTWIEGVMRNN

Substance | Reduction of blood loss [1] | Ki (human plasmin) [nM] | Ki (FVIIa/sTF) [nM] | Ki (FXa) [nM] | HUVEC viability (FIG. 4) (HUVEC [2]) | Fibroblast cell viability (FIG. 5) [3] | Apoptosis, caspase-3/7 activity, HUVEC (FIG. 6) (HUVEC [4]) | HUVEC cytotoxicity, CellTox green (FIG. 7) (HUVEC [5]) | Fibroblasts cytotoxicity, CellTox green (FIG. 8) [6] | half-life [7] [h] | half-life [8] [h]
Textilinin-1 [Q8008] | as effective as aprotinin in reducing blood loss |  |  |  |  |  |  |  |  |  | 
aprotinin |  | 0.5 ± 0.1 | > 3000 | > 3000 | not significantly different from the untreated cells | not significantly different from the untreated cells | did not induce apoptosis | did not induce toxicity | did not induce toxicity | ~2 | ~1.17

From patent US20230331817A1 (The Regents of the University of California, priority 2020, published 2023)
